Earlier results on 1 substance are cited in article PMC8687316.

The target in this series is p53 (Homo sapiens) (UniProt P04637).
p53 (Homo sapiens), sequence (P04637 whole entry): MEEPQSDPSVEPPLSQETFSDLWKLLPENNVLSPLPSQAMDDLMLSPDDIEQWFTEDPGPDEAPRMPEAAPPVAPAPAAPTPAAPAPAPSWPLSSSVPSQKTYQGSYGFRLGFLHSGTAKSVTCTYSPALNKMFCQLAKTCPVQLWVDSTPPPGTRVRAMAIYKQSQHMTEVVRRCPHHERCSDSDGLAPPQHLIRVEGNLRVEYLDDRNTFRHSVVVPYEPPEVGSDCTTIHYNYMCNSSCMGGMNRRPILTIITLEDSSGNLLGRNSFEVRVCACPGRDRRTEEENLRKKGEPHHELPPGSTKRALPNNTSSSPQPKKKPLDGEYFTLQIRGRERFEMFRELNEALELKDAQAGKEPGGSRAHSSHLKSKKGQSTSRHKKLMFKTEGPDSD

Mdm2, sequence (Q00987 whole entry): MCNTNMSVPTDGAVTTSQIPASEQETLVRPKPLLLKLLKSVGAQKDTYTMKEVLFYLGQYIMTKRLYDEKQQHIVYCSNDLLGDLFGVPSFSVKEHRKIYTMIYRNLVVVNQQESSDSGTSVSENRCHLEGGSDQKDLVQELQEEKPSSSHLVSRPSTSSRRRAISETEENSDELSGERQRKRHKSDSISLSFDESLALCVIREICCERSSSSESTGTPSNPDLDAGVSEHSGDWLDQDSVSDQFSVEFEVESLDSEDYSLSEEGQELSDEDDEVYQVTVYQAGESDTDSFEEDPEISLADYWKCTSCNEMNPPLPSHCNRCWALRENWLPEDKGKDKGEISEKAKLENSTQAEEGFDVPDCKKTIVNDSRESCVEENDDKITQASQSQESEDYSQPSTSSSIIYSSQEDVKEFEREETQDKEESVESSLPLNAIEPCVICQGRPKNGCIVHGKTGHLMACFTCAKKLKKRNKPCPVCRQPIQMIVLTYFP

Consider Mdm2 (from UniProt Q00987), for which the Kd (in general, the constant that tells how readily two partners part at equilibrium) is 1.44 nM.
